Kd and binding signal data for ten sequences are collected here from patent US20180346912.

pKd: −log10 of the molar value.

In data set [1] the target is T1, IFN-γ (human) (UniProt P01579).
T1 sequence: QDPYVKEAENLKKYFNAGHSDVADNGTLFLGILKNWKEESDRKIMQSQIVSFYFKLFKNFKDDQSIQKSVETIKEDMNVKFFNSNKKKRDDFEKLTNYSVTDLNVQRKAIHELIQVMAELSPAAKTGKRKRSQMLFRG
The data set is described as follows: SPR. Particulars: biotinylated DNA on SA chip, 1x PBS + 50 mM NaCl, 0.05% NP-40, 25 C.

Data set [2] deals with T1, IFN-γ (human). Briefly: competition. Particulars: PBS, 0.005% NP-40, 37 C.
In data set [3] the test system is T2, VEGF165 (human), P15692-4.
T2 sequence: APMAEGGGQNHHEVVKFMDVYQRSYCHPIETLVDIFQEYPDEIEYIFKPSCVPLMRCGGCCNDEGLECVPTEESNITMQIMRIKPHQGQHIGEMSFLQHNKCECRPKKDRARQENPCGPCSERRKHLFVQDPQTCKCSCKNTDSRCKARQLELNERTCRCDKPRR
The data set is described as follows: competition. Particulars: n = Ds unnatural base in DNA, phosphate buffer pH 7.4, 0.005% NP-40, 37 C.

Where [4] appears, read: n = Ds unnatural base in DNA, EMSA competition vs 32P-Aptamer 49 (=1.00).
The mark [5] stands for this setting: EMSA competition vs 32P-Aptamer 47 (=1.00).

As a reminder, the pKd is the Kd on a negative log10 scale, so that one unit is a factor of ten.

As to “CCCGCCCGGGTCCGCGAAGCGGTAGGTNTGGGCTAGGCNGCTGGCGGGCGCGAAGCG [Aptamer 57GCmh (IFN-γ)]”, the pKd with IFN-γ (human) [1] (n = Ds unnatural base in DNA) was 10.48. In the data set with IFN-γ (human) [2] (setting [4]), this sequence showed a binding signal of 1.53.
Regarding “CCCGCCCGGGTCGCCTANTGGCGTAGGTNTGGGCTAGGCNGCTGGCGGGCGCGAAGCG [Aptamer 58GC (IFN-γ)]”, in the data set with IFN-γ (human) [2] (setting [4]), the binding signal is 0.24.
Regarding “CGGTAAACTGCGTCCGAAGGGGCNTGCAGTGANCCCGAATGGGTCCG [Aptamer 47 (VEGF)]”, the binding signal in data set [3] (reference) turned out to be 1.
“GCGGTAAACTGCGTCCGAAGGGGCNTGCAGTGANCCCGAATGGGTCCGC [Aptamer 49 (VEGF)]” had a binding signal in data set [3] (setting [5]) of 1.53.
Take “GCGGTAAACTGCGTCCGAAGGGGCNTGCAGTGANCCCGAATGGGTCCGCCGCGAAGCG [Aptamer 58mh (VEGF)]”: the binding signal in data set [3] (setting [5]) came out at 1.58.
Still for that read-out and setting: in the case of “GCGGTAAGCCGCGTCCGAAGGGGCNTGCGGCGANCCCGAATGGGTCCGC [Aptamer 49GC (VEGF)]” it was 1.5.
Same read-out and setting: in the case of “GCGGTAAGCCGCGTCCGAAGGGGCNTGCGGCGANCCCGAATGGGTCCGCCGCGAAGCG [Aptamer 58GCmh (VEGF)]” it was 1.59.
For “TCCACTCGGGTCATTTANTAATGTAGGTNTGGGCTAGGCNGCTAGTGGA [Aptamer 49 (IFN-γ)]”, the pKd with IFN-γ (human) [1] (n = Ds, 7-(2-thienyl)-3H-imidazo[4,5-b]pyridin-3-yl unnatural base in DNA) was 10.34. The sequence further came in with a binding signal with IFN-γ (human) [2] (n = Ds, 7-(2-thienyl)-3H-imidazo[4,5-b]pyridin-3-yl unnatural base in DNA, reference, EMSA competition) of 1.
In the case of “TCCACTCGGGTCATTTANTAATGTAGGTNTGGGCTAGGCNGCTAGTGGACGCGAAGCG [Aptamer 58 (IFN-γ)]”, in the data set with IFN-γ (human) [1] (n = Ds unnatural base in DNA), the pKd was 10.42. The binding signal in the data set with IFN-γ (human) [2] (setting [4]) turned out to be 1.29.
“TCCACTCGGGTCCGCGAAGCGGTAGGTNTGGGCTAGGCNGCTAGTGGACGCGAAGCG [Aptamer 57mh (IFN-γ)]” came in with a binding signal with IFN-γ (human) [2] (setting [4]) of 1.4.
